Results reported in patent US20240270846A1 (published 2024).

B1: GLS3000 N30D (Kabat) L chain altered form, one-arm antibody with CE115HA000 (antibody, human IgG1, kappa, L234A L235A, N297A, name in Kabat numbering)
heavy: QVQLVESGGGVVQPGRSLRLSCAASGFTFSNAWMHWVRQAPGKGLEWVAQIKAKSNNYATYYAESVKGRFTISRDDSKNSLYLQMNSLKTEDTAVYYCRYVHYGAYYGVDAWGQGTTVTVSSASTKGPSVFPLAPSSKSTSGGTAALGCLVKDYFPEPVTVSWNSGALTSGVHTFPAVLQSSGLYSLSSVVTVPSSSLGTQTYICNVNHKPSNTKVDKKVEPKSCDKTHTCPPCPAPEAAGGPSVFLFPPKPKDTLMISRTPEVTCVVVDVSHEDPEVKFNWYVDGVEVHNAKTKPREEQYASTYRVVSVLTVLHQDWLNGKEYKCKVSNKALPAPIEKTISKAKGQPREPQVYTLPPSRCELTKNQVSLSCAVKGFYPSDIAVEWESNGQPENNYKTTPPVLDSDGSFFLVSKLTVDKSRWQQGNVFSCSVMHEALHNHYTQKSLSLSPDYKDDDDK
chain: EPKSSDKTHTCPPCPAPELLGGPSVFLFPPKPKDTLMISRTPEVTCVVVDVSHEDPEVKFNWYVDGVEVHNAKTKPREEQYNSTYRVVSVLTVLHQDWLNGKEYKCKVSNKALPAPIEKTISKAKGQPREPQVCTLPPSRDELTKNQVSLWCLVKGFYPSDIAVEWESNGQPENNYKTTPPVLDSDGSFFLYSKLTVDKSRWQQGNVFSCSVMHEALHNRYTQKSLSLSP
light: DIVMTQSPLSLPVTPGEPASISCRSSQSLVHSNRDTYLHWYQQKPGQAPRLLIYKVSNRFSGVPDRFSGSGSGTDFTLKISRVEAEDVGVYYCGQGTQVPYTFGQGTKLEIKRTVAAPSVFIFPPSDEQLKSGTASVVCLLNNFYPREAKVQWKVDNALQSGNSQESVTEQDSKDSTYSLSSTLTLSKADYEKHKVYACEVTHQGLSSPVTKSFNRGEC
notes: one-arm antibody
B2: GLS3000 N30H (Kabat) L chain altered form, one-arm antibody with CE115HA000 (antibody, human IgG1, kappa, L234A L235A, N297A, name in Kabat numbering)
heavy: QVQLVESGGGVVQPGRSLRLSCAASGFTFSNAWMHWVRQAPGKGLEWVAQIKAKSNNYATYYAESVKGRFTISRDDSKNSLYLQMNSLKTEDTAVYYCRYVHYGAYYGVDAWGQGTTVTVSSASTKGPSVFPLAPSSKSTSGGTAALGCLVKDYFPEPVTVSWNSGALTSGVHTFPAVLQSSGLYSLSSVVTVPSSSLGTQTYICNVNHKPSNTKVDKKVEPKSCDKTHTCPPCPAPEAAGGPSVFLFPPKPKDTLMISRTPEVTCVVVDVSHEDPEVKFNWYVDGVEVHNAKTKPREEQYASTYRVVSVLTVLHQDWLNGKEYKCKVSNKALPAPIEKTISKAKGQPREPQVYTLPPSRCELTKNQVSLSCAVKGFYPSDIAVEWESNGQPENNYKTTPPVLDSDGSFFLVSKLTVDKSRWQQGNVFSCSVMHEALHNHYTQKSLSLSPDYKDDDDK
chain: EPKSSDKTHTCPPCPAPELLGGPSVFLFPPKPKDTLMISRTPEVTCVVVDVSHEDPEVKFNWYVDGVEVHNAKTKPREEQYNSTYRVVSVLTVLHQDWLNGKEYKCKVSNKALPAPIEKTISKAKGQPREPQVCTLPPSRDELTKNQVSLWCLVKGFYPSDIAVEWESNGQPENNYKTTPPVLDSDGSFFLYSKLTVDKSRWQQGNVFSCSVMHEALHNRYTQKSLSLSP
light: DIVMTQSPLSLPVTPGEPASISCRSSQSLVHSNRHTYLHWYQQKPGQAPRLLIYKVSNRFSGVPDRFSGSGSGTDFTLKISRVEAEDVGVYYCGQGTQVPYTFGQGTKLEIKRTVAAPSVFIFPPSDEQLKSGTASVVCLLNNFYPREAKVQWKVDNALQSGNSQESVTEQDSKDSTYSLSSTLTLSKADYEKHKVYACEVTHQGLSSPVTKSFNRGEC
notes: one-arm antibody
B3: GLS3000 N30I (Kabat) L chain altered form, one-arm antibody with CE115HA000 (antibody, human IgG1, kappa, L234A L235A, N297A, name in Kabat numbering)
heavy: QVQLVESGGGVVQPGRSLRLSCAASGFTFSNAWMHWVRQAPGKGLEWVAQIKAKSNNYATYYAESVKGRFTISRDDSKNSLYLQMNSLKTEDTAVYYCRYVHYGAYYGVDAWGQGTTVTVSSASTKGPSVFPLAPSSKSTSGGTAALGCLVKDYFPEPVTVSWNSGALTSGVHTFPAVLQSSGLYSLSSVVTVPSSSLGTQTYICNVNHKPSNTKVDKKVEPKSCDKTHTCPPCPAPEAAGGPSVFLFPPKPKDTLMISRTPEVTCVVVDVSHEDPEVKFNWYVDGVEVHNAKTKPREEQYASTYRVVSVLTVLHQDWLNGKEYKCKVSNKALPAPIEKTISKAKGQPREPQVYTLPPSRCELTKNQVSLSCAVKGFYPSDIAVEWESNGQPENNYKTTPPVLDSDGSFFLVSKLTVDKSRWQQGNVFSCSVMHEALHNHYTQKSLSLSPDYKDDDDK
chain: EPKSSDKTHTCPPCPAPELLGGPSVFLFPPKPKDTLMISRTPEVTCVVVDVSHEDPEVKFNWYVDGVEVHNAKTKPREEQYNSTYRVVSVLTVLHQDWLNGKEYKCKVSNKALPAPIEKTISKAKGQPREPQVCTLPPSRDELTKNQVSLWCLVKGFYPSDIAVEWESNGQPENNYKTTPPVLDSDGSFFLYSKLTVDKSRWQQGNVFSCSVMHEALHNRYTQKSLSLSP
light: DIVMTQSPLSLPVTPGEPASISCRSSQSLVHSNRITYLHWYQQKPGQAPRLLIYKVSNRFSGVPDRFSGSGSGTDFTLKISRVEAEDVGVYYCGQGTQVPYTFGQGTKLEIKRTVAAPSVFIFPPSDEQLKSGTASVVCLLNNFYPREAKVQWKVDNALQSGNSQESVTEQDSKDSTYSLSSTLTLSKADYEKHKVYACEVTHQGLSSPVTKSFNRGEC
notes: one-arm antibody
B4: GLS3000 N30E (Kabat) L chain altered form, one-arm antibody with CE115HA000 (antibody, human IgG1, kappa, L234A L235A, N297A, name in Kabat numbering)
heavy: QVQLVESGGGVVQPGRSLRLSCAASGFTFSNAWMHWVRQAPGKGLEWVAQIKAKSNNYATYYAESVKGRFTISRDDSKNSLYLQMNSLKTEDTAVYYCRYVHYGAYYGVDAWGQGTTVTVSSASTKGPSVFPLAPSSKSTSGGTAALGCLVKDYFPEPVTVSWNSGALTSGVHTFPAVLQSSGLYSLSSVVTVPSSSLGTQTYICNVNHKPSNTKVDKKVEPKSCDKTHTCPPCPAPEAAGGPSVFLFPPKPKDTLMISRTPEVTCVVVDVSHEDPEVKFNWYVDGVEVHNAKTKPREEQYASTYRVVSVLTVLHQDWLNGKEYKCKVSNKALPAPIEKTISKAKGQPREPQVYTLPPSRCELTKNQVSLSCAVKGFYPSDIAVEWESNGQPENNYKTTPPVLDSDGSFFLVSKLTVDKSRWQQGNVFSCSVMHEALHNHYTQKSLSLSPDYKDDDDK
chain: EPKSSDKTHTCPPCPAPELLGGPSVFLFPPKPKDTLMISRTPEVTCVVVDVSHEDPEVKFNWYVDGVEVHNAKTKPREEQYNSTYRVVSVLTVLHQDWLNGKEYKCKVSNKALPAPIEKTISKAKGQPREPQVCTLPPSRDELTKNQVSLWCLVKGFYPSDIAVEWESNGQPENNYKTTPPVLDSDGSFFLYSKLTVDKSRWQQGNVFSCSVMHEALHNRYTQKSLSLSP
light: DIVMTQSPLSLPVTPGEPASISCRSSQSLVHSNRETYLHWYQQKPGQAPRLLIYKVSNRFSGVPDRFSGSGSGTDFTLKISRVEAEDVGVYYCGQGTQVPYTFGQGTKLEIKRTVAAPSVFIFPPSDEQLKSGTASVVCLLNNFYPREAKVQWKVDNALQSGNSQESVTEQDSKDSTYSLSSTLTLSKADYEKHKVYACEVTHQGLSSPVTKSFNRGEC
notes: one-arm antibody
B5: GLS3000 N30G (Kabat) L chain altered form, one-arm antibody with CE115HA000 (antibody, human IgG1, kappa, L234A L235A, N297A, name in Kabat numbering)
heavy: QVQLVESGGGVVQPGRSLRLSCAASGFTFSNAWMHWVRQAPGKGLEWVAQIKAKSNNYATYYAESVKGRFTISRDDSKNSLYLQMNSLKTEDTAVYYCRYVHYGAYYGVDAWGQGTTVTVSSASTKGPSVFPLAPSSKSTSGGTAALGCLVKDYFPEPVTVSWNSGALTSGVHTFPAVLQSSGLYSLSSVVTVPSSSLGTQTYICNVNHKPSNTKVDKKVEPKSCDKTHTCPPCPAPEAAGGPSVFLFPPKPKDTLMISRTPEVTCVVVDVSHEDPEVKFNWYVDGVEVHNAKTKPREEQYASTYRVVSVLTVLHQDWLNGKEYKCKVSNKALPAPIEKTISKAKGQPREPQVYTLPPSRCELTKNQVSLSCAVKGFYPSDIAVEWESNGQPENNYKTTPPVLDSDGSFFLVSKLTVDKSRWQQGNVFSCSVMHEALHNHYTQKSLSLSPDYKDDDDK
chain: EPKSSDKTHTCPPCPAPELLGGPSVFLFPPKPKDTLMISRTPEVTCVVVDVSHEDPEVKFNWYVDGVEVHNAKTKPREEQYNSTYRVVSVLTVLHQDWLNGKEYKCKVSNKALPAPIEKTISKAKGQPREPQVCTLPPSRDELTKNQVSLWCLVKGFYPSDIAVEWESNGQPENNYKTTPPVLDSDGSFFLYSKLTVDKSRWQQGNVFSCSVMHEALHNRYTQKSLSLSP
light: DIVMTQSPLSLPVTPGEPASISCRSSQSLVHSNRGTYLHWYQQKPGQAPRLLIYKVSNRFSGVPDRFSGSGSGTDFTLKISRVEAEDVGVYYCGQGTQVPYTFGQGTKLEIKRTVAAPSVFIFPPSDEQLKSGTASVVCLLNNFYPREAKVQWKVDNALQSGNSQESVTEQDSKDSTYSLSSTLTLSKADYEKHKVYACEVTHQGLSSPVTKSFNRGEC
notes: one-arm antibody
B6: GLS3000 N30K (Kabat) L chain altered form, one-arm antibody with CE115HA000 (antibody, human IgG1, kappa, L234A L235A, N297A, name in Kabat numbering)
heavy: QVQLVESGGGVVQPGRSLRLSCAASGFTFSNAWMHWVRQAPGKGLEWVAQIKAKSNNYATYYAESVKGRFTISRDDSKNSLYLQMNSLKTEDTAVYYCRYVHYGAYYGVDAWGQGTTVTVSSASTKGPSVFPLAPSSKSTSGGTAALGCLVKDYFPEPVTVSWNSGALTSGVHTFPAVLQSSGLYSLSSVVTVPSSSLGTQTYICNVNHKPSNTKVDKKVEPKSCDKTHTCPPCPAPEAAGGPSVFLFPPKPKDTLMISRTPEVTCVVVDVSHEDPEVKFNWYVDGVEVHNAKTKPREEQYASTYRVVSVLTVLHQDWLNGKEYKCKVSNKALPAPIEKTISKAKGQPREPQVYTLPPSRCELTKNQVSLSCAVKGFYPSDIAVEWESNGQPENNYKTTPPVLDSDGSFFLVSKLTVDKSRWQQGNVFSCSVMHEALHNHYTQKSLSLSPDYKDDDDK
chain: EPKSSDKTHTCPPCPAPELLGGPSVFLFPPKPKDTLMISRTPEVTCVVVDVSHEDPEVKFNWYVDGVEVHNAKTKPREEQYNSTYRVVSVLTVLHQDWLNGKEYKCKVSNKALPAPIEKTISKAKGQPREPQVCTLPPSRDELTKNQVSLWCLVKGFYPSDIAVEWESNGQPENNYKTTPPVLDSDGSFFLYSKLTVDKSRWQQGNVFSCSVMHEALHNRYTQKSLSLSP
light: DIVMTQSPLSLPVTPGEPASISCRSSQSLVHSNRKTYLHWYQQKPGQAPRLLIYKVSNRFSGVPDRFSGSGSGTDFTLKISRVEAEDVGVYYCGQGTQVPYTFGQGTKLEIKRTVAAPSVFIFPPSDEQLKSGTASVVCLLNNFYPREAKVQWKVDNALQSGNSQESVTEQDSKDSTYSLSSTLTLSKADYEKHKVYACEVTHQGLSSPVTKSFNRGEC
notes: one-arm antibody

Target: T1, CD3 epsilon homodimer protein (UniProt P07766 23-126)
T1 construct: construct not described; homodimer as printed; also called CD3 (CD3 epsilon)
Experiment: SPR Biacore T200, CD3 epsilon homodimer immobilized; vs unaltered GLS3000;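 further: antibody variants flowed as analyte over CD3 epsilon homodimer amine-coupled to a CM4 chip, at 25 °C in HBS-EP+ running buffer, fitted with Biacore T200 Evaluation Software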

T1 sequence (P07766 23-126): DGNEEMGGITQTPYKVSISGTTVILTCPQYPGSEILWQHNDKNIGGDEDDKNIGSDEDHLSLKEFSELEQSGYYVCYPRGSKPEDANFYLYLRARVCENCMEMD

Compared with B1, B2 is lower in “KD ratio to GLS3000 (Affinity up)” value: 3.82 for the first, 1.08 for the second.

First: B3
Second: B4
The “KD ratio to GLS3000 (Affinity up)” value of the first is lower: 1.24 for the first, 2.83 for the second.

Going from B5 to B6, the “KD ratio to GLS3000 (Affinity up)” value falls from 2.1 to 1.35.
